{
  "source": "patent US7642046B2",
  "about": "“Method for monitoring recruitment of proteins to the intracellular domain of a receptor in intact cells” (priority 2001, dated 2010)",
  "biological_target": "T1, CD40 (Homo sapiens, UniProt P25942)",
  "T1 construct": "expressed in transfected cells; host or cells: HEK 293T",
  "T1 sequence (P25942 21-277)": "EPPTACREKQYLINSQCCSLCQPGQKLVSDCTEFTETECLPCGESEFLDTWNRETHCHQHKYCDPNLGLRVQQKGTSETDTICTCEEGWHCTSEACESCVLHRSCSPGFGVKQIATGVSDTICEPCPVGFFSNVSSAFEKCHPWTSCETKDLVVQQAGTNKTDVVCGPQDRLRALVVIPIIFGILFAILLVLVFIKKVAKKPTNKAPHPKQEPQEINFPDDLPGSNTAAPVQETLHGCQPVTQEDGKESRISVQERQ",
  "assay": "Recruitment assay in intact cells: CD40 and TRAF co-expressed in 293T cells, anti-CD40 capture ELISA of lysate",
  "format": "cell-based",
  "settings": "for interaction with CD40 when signalosome assembly occurred in an intact cell: co-expressed in 293T cells, versus cell lysate",
  "procedure": "In order monitor TNF receptor associated factor 1 (TRAF1) recruitment to the CD40 receptor, in intact cells, CD40 and TRAF1 encoding plasmids generated as described in example 7) were used to co-transfect the human embryonic kidney 293T cells (HEK293 ATTC CRL-1573 over expressing the T antigen) (DuBridge et al 1987). 2×10^5 cells were seeded at into 3.5 cm dishes grown 16 hours at 37° C. and transfected with 1 μg CD40 expression plasmid and 2 μg of an expression plasmid encoding TRAF by the calcium phosphate method (Kingston et al. 1993). The two expression plasmids, TRAF1 plasmid and CD40 plasmid were used for transfection at a ratio greater than 2:1 respectively in order to saturate all the CD40 molecules produced. Twenty-seven hours after transfection, the cells were detached, washed once with ice cold phosphate buffered saline (PBS) and detergent extracted with\n180 μl lysis buffer [phosphate buffered saline (PBS) containing a protease inhibitor cocktail (0.16 mM Pefabloc, 105 IU Aprotinin), 1% Triton X100 and 0.1% Na Azide]. Since CD40 has a tendency for ligand independent signaling when expressed at high levels it was not necessary to activate the receptor with DC40 ligand or mimetic anti CD40 antibodies before lysis. This feature is shared by various members of the TNFR gene family (Boldin et al. 1995, Siegel et al. 2000 and Chan et al. 2000). […]\nThe recruitment of TRAF to CD40 can be quantitatively measured using the assay described in example 1. […] The CD40 bound TRAF concentration was measured as described in example 1. […] The necessary normalization for sample-to-sample variations in the CD40 expression was calculated with the following formula:\n[formula] CD40 concentrations were determined with an ELISA employing a monoclonal antibody (solid phase) and a polyclonal anti CD40 antibody (for detection) both specific for the extracellular domain of the receptor. […]",
  "data": [
    {"molecule": "TRAF2: TNF receptor associated factor 2, human adaptor protein expressed from pcDNA3 (protein, UniProt Q12933 1-501, looked up, full-length, TNF receptor associated factor 2, human adaptor protein expressed from pcDNA3) MAAASVTPPGSLELLQPGFSKTLLGTKLEAKYLCSACRNVLRRPFQAQCGHRYCSFCLASILSSGPQNCAACVHEGIYEEGISILESSSAFPDNAARREVESLPAVCPSDGCTWKGTLKEYESCHEGRCPLMLTECPACKGLVRLGEKERHLEHECPERSLSCRHCRAPCCGADVKAHHEVCPKFPLTCDGCGKKKIPREKFQDHVKTCGKCRVPCRFHAIGCLETVEGEKQQEHEVQWLREHLAMLLSSVLEAKPLLGDQSHAGSELLQRCESLEKKTATFENIVCVLNREVERVAMTAEACSRQHRLDQDKIEALSSKVQQLERSIGLKDLAMADLEQKVLEMEASTYDGVFIWKISDFARKRQEAVAGRIPAIFSPAFYTSRYGYKMCLRIYLNGDGTGRGTHLSLFFVVMKGPNDALLRWPFNQKVTLMLLDQNNREHVIDAFRPDVTSSSFQRPVNDMNIASGCPLFCPVSKMEAKNSYVRDDAIFIKAIVDLTGL", "values": [
      {"measurement": "interaction with CD40 when signalosome assembly occurred in an intact cell", "value": "clearly improved sensitivity"}
    ]},
    {"molecule": "TRAF1: TNF receptor associated factor 1, adaptor protein overexpressed in 293T cells from pcDNA3 (protein, UniProt Q13077 1-416, looked up, full-length, TNF receptor associated factor 1, adaptor protein overexpressed in 293T cells from pcDNA3) MASSSGSSPRPAPDENEFPFGCPPTVCQDPKEPRALCCAGCLSENPRNGEDQICPKCRGEDLQSISPGSRLRTQEKAHPEVAEAGIGCPFAGVGCSFKGSPQSVQEHEVTSQTSHLNLLLGFMKQWKARLGCGLESGPMALEQNLSDLQLQAAVEVAGDLEVDCYRAPCSESQEELALQHFMKEKLLAELEGKLRVFENIVAVLNKEVEASHLALATSIHQSQLDRERILSLEQRVVELQQTLAQKDQALGKLEQSLRLMEEASFDGTFLWKITNVTRRCHESACGRTVSLFSPAFYTAKYGYKLCLRLYLNGDGTGKRTHLSLFIVIMRGEYDALLPWPFRNKVTFMLLDQNNREHAIDAFRPDLSSASFQRPQSETNVASGCPLFFPLSKLQSPKHAYVKDDTMFLKCIVETST", "values": [
      {"measurement": "dilution of the original extract up to which recruitment to the CD40 receptor can be detected", "setting": "CD40 wt co-expressed with TRAF1 in 293T cells, 3 fold serial dilutions of lysate", "value": "≤ 243", "unit": "fold"},
      {"measurement": "interaction with CD40 when signalosome assembly occurred in an intact cell", "value": "clearly improved sensitivity"}
    ]}
  ]
}
